Results: PMC11965559 (Nature Communications, 2024)
Read-outs that look alike come from different tables or passages of the source.

What was measured:
Test in all cases: EMSA
[1] = target: T1, SmD1 (1-109);SmD2;SmF;SmE;SmG (Saccharomyces cerevisiae;Saccharomyces …, UniProt Q02260;Q06217;P54999;Q12330;P40204 1-109;1-110;1-86;1-94;1-77, ||||)
[2] = target: SmD1 (1-109);SmD2;SmF;SmE;SmG;Brr1;SmD3 (1-88);SmB (1-105) (Saccharomyces cerevisiae;Saccharomyces …, UniProt Q02260;Q06217;P54999;Q12330;P40204;Q99177;P43321;P40018 …, |||||||)
[3] = target: SmD1 (1-109);SmD2;SmF;SmE;SmG;Brr1 (Saccharomyces cerevisiae;Saccharomyces …, UniProt Q02260;Q06217;P54999;Q12330;P40204;Q99177 1-109;1-110;1-86;1-94;1-77;1-341, |||||)
[4] = target: T2, SmD1 (1-109);SmD2;SmF;SmE;SmG;SmD3 (1-88);SmB (1-105) (Saccharomyces cerevisiae;Saccharomyces …, UniProt Q02260;Q06217;P54999;Q12330;P40204;P43321;P40018 …, ||||||)
[5] = target: T1, SmD1 (1-109);SmD2;SmF;SmE;SmG; remark: listed apart in the source
[6] = target: T2, SmD1 (1-109);SmD2;SmF;SmE;SmG;SmD3 …; remark: listed apart in the source
[7] = target: T2, SmD1 (1-109);SmD2;SmF;SmE;SmG;SmD3 …; remark: listed apart in the source

B1: Umini-ΔSm-snRNA (structured_RNA)
RNA: GGGAAGUGUUACAGCUCUUUUAGAACCCCCGGAGUAGGCUUUCUGGCUUUUCACCGGAAAGCCCCU
- binding result [1]: no binding
- binding result [2]: no binding
- binding result [3]: no binding
- binding result [4]: no binding

B2: Umini-3'ss (ssRNA)
RNA: GGGAAGUGUUACAGCUCUUUUAGAAUUUUUGGAGUAGGCUUUCUGGCUUUUCAGGCCUUUCGGGGA
- binding result [5]: binds
- binding result [3]: binds
- binding result [6]: binds

B3: U4-snRNA (structured_RNA)
RNA: GGAUCCUUAUGCACGGGAAAUACGCAUAUCAGUGAGGAUUCGUCCGAGAUUGUGUUUUUGCUGGUUGAAAUUUAAUUAUAAACCAGACCGUCUCCUCAUGGUCAAUUCGGUGUUCGCUUUUGAAUACUUCAAGACUAUGUAAAUUUUUGGAAUACCUUU
- binding result [7]: binds
- binding result [3]: binds
